Test results taken from US20210206861A1 (SUNSHINE GUOJIAN PHARMACEUTICAL SHANGHAI, published 2021).

Experiments:
human IL-4R = human IL-4R (human, UniProt P24394 26-825); experiment: cell-based or functional assay
IL-4R-ECD-FLAG [1] = biological target: T1, IL-4R-ECD-FLAG (human, UniProt P24394 26-232); experiment: ELISA on coated IL-4R-ECD-FLAG (100 ng/ml), HRP goat anti-human secondary
T1 construct: Expressed in HEK293, purified on an anti-FLAG column; also called IL-4R antigen; human IL-4R; not shown: FLAG tag added to the end of the IL-4R-ECD coding region

IL-4R-ECD-FLAG [2] = biological target: T1, IL-4R-ECD-FLAG; experiment: SPR, Biacore T200; antibody captured on Protein A/G CM5 chip, IL-4R-ECD-FLAG injected
Experimental: Next cycle was repeated after eluting the chip with 6M guanidine hydrochloride regeneration buffer. The data was analyzed using Biacore T200 Evaluation Software.

Biotinated IL-4R-ECD-hFc = biological target: T2, Biotinated IL-4R-ECD-hFc (human, UniProt P24394 26-232, biotinylated with Biotin N-hydroxysuccinimide ester (sites not given)); experiment: blocking ELISA: coated IL-4-hFc (2000 ng/ml), biotinylated IL-4R-ECD-hFc (100 ng/ml) with antibody in dilution series, Streptavidin-HRP
T2 construct: also called biotinylated IL-4R-ECD-hFc; not shown: hFc (IgG1) tag
Experimental: The plate was washed with phosphate buffer containing 0.05% Tween-20 (PBST) and blocked by adding PBST containing 1% bovine serum albumin to each well. Then the plate was washed with PBST. […] The plate was washed with PBST. Streptavidin-HRP which was diluted with PBST containing 1% BSA at a dilution ratio of 1:1000 was added at 100 μl/well and incubated at 37° C. for 30 min. Chromogenic solution (TMB substrate solution) was added at 100 μl/well, and incubated at room temperature for 1˜5 min; then 50 μl/well of the stop solution was added to stop the color reaction. OD450 values were read with a microplate reader and GraphPad Prism6 was used to analyze data, prepare graphs, and calculate IC50.

Binder	IC50 of inhibition of IL-4-induced CD23 expression by PBMC, first experiment (human IL-4R)	IC50 of inhibition of IL-4-induced CD23 expression by PBMC, second experiment (human IL-4R)	IC50 of inhibition of IL-4-induced IgE secretion by PBMC, first experiment (human IL-4R)	IC50 of inhibition of IL-4-induced IgE secretion by PBMC, second experiment (human IL-4R)	IC50 of inhibition of IL-4-induced TF-1 cell proliferation, first experiment (human IL-4R)	IC50 of inhibition of IL-4-induced TF-1 cell proliferation, second experiment (human IL-4R)	IC50 of inhibition of IL-4-induced TF-1 cell proliferation, third experiment (human IL-4R)	IC50 of inhibition of IL-13-induced TF-1 cell proliferation (human IL-4R)	EC50 (IL-4R-ECD-FLAG [1])	IC50 of inhibition of IL-4-induced TF-1 cell proliferation (human IL-4R)	Kd (IL-4R-ECD-FLAG [2])	koff (IL-4R-ECD-FLAG [2])	kon (IL-4R-ECD-FLAG [2])	IC50 (Biotinated IL-4R-ECD-hFc)
4-2-Chimeric-IgG1 (antibody, V domains shown, also called chimeric antibody 4-2-Chimeric-IgG1) VH: QVQLQQSGPELVKPGASVKISCTASGSTLTDDYINWVKQRPGRGLEWVGWIFPGNGNSYYNEKFKDKATLIVDKSSSTAYMLLSSLTSEDSAVYFCARGLVRYRALFDYWGQGTTLTVSS VL: QIVLSQSPAILSASPGEKVTMTCRASSSINYMHWYQQKPGSSPKPWIYAASNLASGVPARFSGSGSGTSFSLTISRVEAEDAATYYCQQWSSYPITFGSGTKLEIK	–	–	–	–	–	–	–	81.6 ng/mL	0.0118 µg/mL	225 ng/mL	–	–	–	–
4-2-Humanized-IgG1 (antibody, expressed in HEK293E; also called humanized antibody 4-2-Humanized-IgG1) heavy: not shown light: DIQMTQSPSSLSASVGDRVTITCRASSSINYMHWYQQKPGKAPKPWIYAASNLASGVPSRFSGSGSGTDFTLTISSLQPEDFATYYCQQWSSYPITFGQGTKVEIKRTVAAPSVFIFPPSDEQLKSGTASVVCLLNNFYPREAKVQWKVDNALQSGNSQESVTEQDSKDSTYSLSSTLTLSKADYEKHKVYACEVTHQGLSSPVTKSFNRGEC	29.4 ng/mL	3.56 ng/mL	448 ng/mL	61.3 ng/mL	561 ng/mL	427 ng/mL	520 ng/mL	34.3 ng/mL	0.0124 µg/mL	–	0.717 nM	0.000133 s⁻¹	186000 M⁻¹ s⁻¹	0.138 µg/mL
4-2-Humanized-IgG4 (antibody, also called 4-2-Hu-IgG4) heavy: not shown light: DIQMTQSPSSLSASVGDRVTITCRASSSINYMHWYQQKPGKAPKPWIYAASNLASGVPSRFSGSGSGTDFTLTISSLQPEDFATYYCQQWSSYPITFGQGTKVEIKRTVAAPSVFIFPPSDEQLKSGTASVVCLLNNFYPREAKVQWKVDNALQSGNSQESVTEQDSKDSTYSLSSTLTLSKADYEKHKVYACEVTHQGLSSPVTKSFNRGEC	232 ng/mL	34 ng/mL	1950 ng/mL	413 ng/mL	1290 ng/mL	1110 ng/mL	1140 ng/mL	–	–	2780 ng/mL	0.692 nM	0.00013 s⁻¹	188000 M⁻¹ s⁻¹	0.14 µg/mL

Further lines, results first:

IC50 of inhibition of IL-4-induced CD23 expression by PBMC, first experiment (human IL-4R)	IC50 of inhibition of IL-4-induced CD23 expression by PBMC, second experiment (human IL-4R)	IC50 of inhibition of IL-4-induced IgE secretion by PBMC, first experiment (human IL-4R)	IC50 of inhibition of IL-4-induced IgE secretion by PBMC, second experiment (human IL-4R)	IC50 of inhibition of IL-4-induced TF-1 cell proliferation, first experiment (human IL-4R)	IC50 of inhibition of IL-4-induced TF-1 cell proliferation, second experiment (human IL-4R)	IC50 of inhibition of IL-4-induced TF-1 cell proliferation, third experiment (human IL-4R)	IC50 of inhibition of IL-13-induced TF-1 cell proliferation (human IL-4R)	EC50 (IL-4R-ECD-FLAG [1])	IC50 of inhibition of IL-4-induced TF-1 cell proliferation (human IL-4R)	Kd (IL-4R-ECD-FLAG [2])	koff (IL-4R-ECD-FLAG [2])	kon (IL-4R-ECD-FLAG [2])	IC50 (Biotinated IL-4R-ECD-hFc)	Binder
90.9 ng/mL	20.6 ng/mL	996 ng/mL	189 ng/mL	842 ng/mL	616 ng/mL	687 ng/mL	73.8 ng/mL	–	–	–	–	–	–	Dupilumab (antibody, V domains shown) VH: EVQLVESGGGLEQPGGSLRLSCAGSGFTFRDYAMTWVRQAPGKGLEWVSSISGSGGNTYYADSVKGRFTISRDNSKNTLYLQMNSLRAEDTAVYYCAKDRLSITIRPRYYGLDVWGQGTTVTVSS VL: DIVMTQSPLSLPVTPGEPASISCRSSQSLLYSIGYNYLDWYLQKSGQSPQLLIYLGSNRASGVPDRFSGSGSGTDFTLKISRVEAEDVGFYYCMQALQTPYTFGQGTKLEIKR
7.4 ng/mL	0.49 ng/mL	50.9 ng/mL	26.6 ng/mL	–	–	–	–	–	292 ng/mL	–	–	–	0.144 µg/mL	4-2-Humanized-IgG1-SELF (antibody, also called SELF mutant of anti-human IL-4R humanized antibody) heavy: not shown light: DIQMTQSPSSLSASVGDRVTITCRASSSINYMHWYQQKPGKAPKPWIYAASNLASGVPSRFSGSGSGTDFTLTISSLQPEDFATYYCQQWSSYPITFGQGTKVEIKRTVAAPSVFIFPPSDEQLKSGTASVVCLLNNFYPREAKVQWKVDNALQSGNSQESVTEQDSKDSTYSLSSTLTLSKADYEKHKVYACEVTHQGLSSPVTKSFNRGEC
